Data on six molecules can be found in patent US20050002923A1 (published 2005).

For series [1], the target named is Bca UvrA + Eco UvrB (Bacillus caldotenax / Escherichia coli) (UniProt P0A8F8). The series can be described thus: EMSA. Conditions: central (+)-trans-BPDE-N2-guanine adduct; 10 nM UvrA, 100 nM Eco UvrB, 1 mM ATP, 10 mM MgCl2, 37 C; all substrate bound at 250 nM Eco UvrB. (A gel shift assay detects complexes by their altered migration in electrophoresis.)
Series [2] has as its system UvrA (Bca) (Bacillus caldotenax). As to the kind of experiment: EMSA. Conditions: central (+)-trans-BPDE-N2-guanine adduct; ABC buffer, 10 mM MgCl2, 1 mM ATP, 37 C, 20 min; fitted as UvrA dimer.
The test system of series [3] is UvrA (Eco) (Escherichia coli). As to the kind of experiment: EMSA. Conditions: central (+)-trans-BPDE-N2-guanine adduct; CITED Zou et al. 1998; cited from earlier work.
The subject of series [4] is Bca UvrA + Eco UvrB + Eco UvrC (Bacillus caldotenax / Escherichia coli). The series can be described thus: cleavage_in_vitro. Conditions: central (+)-trans-BPDE-N2-guanine adduct; 10 nM UvrA, 100 nM UvrB, 5 nM UvrC, 37 C 20 min; 83% and 60% after UvrA preincubation at 65 C for 10 and 30 min; figure legend says cis adduct, text says trans.
The subject of series [5] is Eco UvrA + Eco UvrB + Eco UvrC (Escherichia coli). As to the kind of experiment: cleavage_in_vitro. Conditions: central (+)-trans-BPDE-N2-guanine adduct; 37 C 20 min; abolished by UvrA preincubation at 65 C for 10 min; figure legend says cis adduct, text says trans.
For series [6], the system named is UvrA (Bca) (Bacillus caldotenax). Conditions: UV damage, 200 J/m2; ATPase; 13.2 without DNA; 37 C.
Series [7] has as its target UvrA2 Δβh UvrB (Bca) UvrB deletion Gln97-Asp112 replaced by Gly (Bacillus caldotenax) (UniProt P56981). Conditions: UV damage, 200 J/m2; ATPase; 19.0 without DNA.
The subject of series [8] is UvrA2UvrB (Bca) (Bacillus caldotenax). Conditions: UV damage, 200 J/m2; ATPase; 18.3 without DNA.
The subject of series [9] is UvrA (Bca) (Bacillus caldotenax). Conditions: ATPase stimulated about 10-fold by 5.6 nM dsDNA (control 4.42; 18.4 at 0.224 nM), 37 C.
The subject of series [10] is UvrA (Eco) (Escherichia coli). Conditions: ATPase inhibited 23% by 0.224 nM dsDNA (control 71.5), 37 C.
The target of series [11] is T1, Bacillus caldotenax (Bca) UvrA protein.
T1 chain: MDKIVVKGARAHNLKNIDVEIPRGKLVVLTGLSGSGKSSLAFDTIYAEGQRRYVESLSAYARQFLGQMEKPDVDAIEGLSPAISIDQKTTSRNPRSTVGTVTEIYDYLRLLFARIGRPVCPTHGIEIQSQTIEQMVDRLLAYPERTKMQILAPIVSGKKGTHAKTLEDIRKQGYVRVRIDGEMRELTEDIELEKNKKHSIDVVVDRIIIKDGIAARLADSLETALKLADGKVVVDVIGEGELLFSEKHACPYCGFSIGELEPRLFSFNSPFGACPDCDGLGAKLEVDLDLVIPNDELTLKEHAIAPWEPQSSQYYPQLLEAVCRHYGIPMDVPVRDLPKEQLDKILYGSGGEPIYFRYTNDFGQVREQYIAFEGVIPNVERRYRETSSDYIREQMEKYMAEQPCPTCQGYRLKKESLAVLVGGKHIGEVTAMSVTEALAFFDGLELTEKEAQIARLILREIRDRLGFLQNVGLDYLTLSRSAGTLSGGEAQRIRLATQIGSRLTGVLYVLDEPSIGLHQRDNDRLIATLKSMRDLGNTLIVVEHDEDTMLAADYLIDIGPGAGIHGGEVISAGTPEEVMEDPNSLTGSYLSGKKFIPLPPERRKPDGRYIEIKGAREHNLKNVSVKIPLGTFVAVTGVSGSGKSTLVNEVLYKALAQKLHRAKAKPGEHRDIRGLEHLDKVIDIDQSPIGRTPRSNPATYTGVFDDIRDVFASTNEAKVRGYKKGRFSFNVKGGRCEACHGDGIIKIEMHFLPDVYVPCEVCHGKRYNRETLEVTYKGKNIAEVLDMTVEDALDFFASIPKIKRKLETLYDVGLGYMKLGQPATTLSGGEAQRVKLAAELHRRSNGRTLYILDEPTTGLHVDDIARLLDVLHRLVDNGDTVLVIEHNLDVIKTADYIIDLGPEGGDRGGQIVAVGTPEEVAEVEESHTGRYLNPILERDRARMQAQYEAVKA

In another series the target is T2, E. coli UvrB protein (Escherichia coli, UniProt A7ZJI8 1-673).
T2 construct: also called Eco UvrB; UvrB (Eco)
T2 sequence: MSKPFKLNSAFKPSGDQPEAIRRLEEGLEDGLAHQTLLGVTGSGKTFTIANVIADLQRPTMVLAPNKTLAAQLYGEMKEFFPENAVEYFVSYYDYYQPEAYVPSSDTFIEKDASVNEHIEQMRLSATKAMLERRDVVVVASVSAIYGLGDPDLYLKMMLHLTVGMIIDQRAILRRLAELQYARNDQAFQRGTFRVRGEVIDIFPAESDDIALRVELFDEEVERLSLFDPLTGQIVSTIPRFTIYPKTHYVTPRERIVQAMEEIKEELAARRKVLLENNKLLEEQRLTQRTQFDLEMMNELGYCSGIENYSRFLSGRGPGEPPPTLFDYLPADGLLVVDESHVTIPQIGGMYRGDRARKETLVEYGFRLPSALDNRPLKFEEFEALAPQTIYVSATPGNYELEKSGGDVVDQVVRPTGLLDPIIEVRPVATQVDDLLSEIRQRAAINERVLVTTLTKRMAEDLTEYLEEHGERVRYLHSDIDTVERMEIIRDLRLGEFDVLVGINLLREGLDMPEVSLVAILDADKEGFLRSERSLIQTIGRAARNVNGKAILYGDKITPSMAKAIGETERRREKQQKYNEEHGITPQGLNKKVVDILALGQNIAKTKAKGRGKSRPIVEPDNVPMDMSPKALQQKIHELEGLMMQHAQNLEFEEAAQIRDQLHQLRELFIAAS
The series can be described thus: gel mobility shift with BPDE-DNA substrate, 37° C.

Some results are limits rather than exact numbers.

With (+)-trans-BPDE-N2-dG 50-bp duplex, the binding (% bound as UvrB-DNA) in series [1] is above 50. The Kd (in general, the constant that tells how readily two partners part at equilibrium) in series [2] is 25 nM; in series [3], 7.5 nM. For the same molecule, the activity in [4] came to 89 % incised; in series [5] it was 67 % incised.

Regarding UV-irradiated pUC18 DNA, the activity (mol ATP/mol protein/min) in series [6] was 17; in series [7], 29; in series [8], 22.

Consider pGL-2 plasmid DNA (undamaged), for which the activity (uM ADP/min/uM UvrA) in series [9] turned out to be 45.6; in [10] it was 55.4.

B1: β-hairpin deletion mutant of B. caldotenax UvrB (Δβh UvrB) (protein)
chain: VEGRFQLVAPYEPQGDQPQAIAKLVDGLRRGVKHQTLLGATGTGKTFTISNVIAQVNKPTLVIAHNKTLAGQLYSELKEFFPHNAVEYFVSYYDYYGAKINDEIDKLRHSATSALFERRDVIIVASVSCIYGLGSPEEYRELVVSLRVGMEIERNALLRRLVDIQYDRNDIDFRRGTFRVRGDVVEIFPASRDEHCIRVEFFGDEIERIREVDALTGEVLGEREHVAIFPASHFVTREEKMRLAIQNIEQELEERLAELRAQGKLLEAQRLEQRTRYDLEMMREMGFCSGIENYSRHLALRPPGSTPYTLLDYFPDDFLIIVDESHVTLPQLRGMYNGDRARKQVLVDHGFRLPSALDNRPLTFEEFEQKINQIIYVSATPGPYELEHSPGVVEQIIRPTGLLDPTIDVRPTKGQIDDLIGEIRERVERNERTLVTTLTKKMAEDLTDYLKEAGIKVAYLHSEIKTLERIEIIRDLRLGKYDVLVGINLLREGLDIPEVSLVAILDADKEGFLRSERSLIQTIGRAARNANGHVIMYADTITKSMEIAIQETKRRRAIQEEYNRKHGIVPRTVKKEIRDVIRATYAAEETEMYEAKPAAAMTKQEREELIRTLEAEMKEAAKALDFERAAQLRDIIFELKAEG
B1: in series [11], the ATPase activity (mol of ATP hydrolyzed/mol of protein/min) stood at 19 and the ATPase activity (with UV-irradiated DNA) (mol of ATP hydrolyzed/mol of protein/min) was determined as 29.

B2: Bacillus caldotenax (Bca) UvrA protein (enzyme)
chain: T1 chain
notes: Full-length recombinant protein made in E. coli as a UvrA-intein-CBD fusion and released by DTT cleavage; also called B. caldotenax UvrA; UvrASD
On to B2, for which the binding result with E. coli UvrB protein is given as “binds”.

B3: Bacillus caldotenax (Bca) UvrB protein, wild type (protein)
chain: VEGRFQLVAPYEPQGDQPQAIAKLVDGLRRGVKHQTLLGATGTGKTFTISNVIAQVNKPTLVIAHNKTLAGQLYSELKEFFPHNAVEYFVSYYDYYQPEAYVPQTDTYIEKDAKINDEIDKLRHSATSALFERRDVIIVASVSCIYGLGSPEEYRELVVSLRVGMEIERNALLRRLVDIQYDRNDIDFRRGTFRVRGDVVEIFPASRDEHCIRVEFFGDEIERIREVDALTGEVLGEREHVAIFPASHFVTREEKMRLAIQNIEQELEERLAELRAQGKLLEAQRLEQRTRYDLEMMREMGFCSGIENYSRHLALRPPGSTPYTLLDYFPDDFLIIVDESHVTLPQLRGMYNGDRARKQVLVDHGFRLPSALDNRPLTFEEFEQKINQIIYVSATPGPYELEHSPGVVEQIIRPTGLLDPTIDVRPTKGQIDDLIGEIRERVERNERTLVTTLTKKMAEDLTDYLKEAGIKVAYLHSEIKTLERIEIIRDLRLGKYDVLVGINLLREGLDIPEVSLVAILDADKEGFLRSERSLIQTIGRAARNANGHVIMYADTITKSMEIAIQETKRRRAIQEEYNRKHGIVPRTVKKEIRDVIRATYAAEETEMYEAKPAAAMTKQEREELIRTLEAEMKEAAKALDFERAAQLRDIIFELKAEG
In [11], B3 showed an ATPase activity (mol of ATP hydrolyzed/mol of protein/min) of 18.3 and an ATPase activity (with UV-irradiated DNA) (mol of ATP hydrolyzed/mol of protein/min) of 22.
